# Assay results taken from patent publication US20240316157A1, “PHARMACEUTICAL COMPOSITION OF PCSK9 INHIBITOR AND GLP-1 RECEPTOR AGONIST” (Gan & Lee Pharmaceuticals Co., Ltd., priority 2021, published 2024).
# B1: Evolocumab (antibody, chains of the INN, looked up, V domains shown)
# VH: EVQLVQSGAEVKKPGASVKVSCKASGYTLTSYGISWVRQAPGQGLEWMGWVSFYNGNTNYAQKLQGRGTMTTDPSTSTAYMELRSLRSDDTAVYYCARGYGMDVWGQGTTVTVSS
# VL: ESALTQPASVSGSPGQSITISCTGTSSDVGGYNSVSWYQQHPGKAPKLMIYEVSNRPSGVSNRFSGSKSGNTASLTISGLQAEDEADYYCNSYTSTSMVFGGGTKLTVL
# notes: PCSK9 antibody; source is Repatha®, commercially available from Amgen
# B2: Laboratory-Purified Evolocumab: Commercially available Evolocumab (Repatha®) purified in the laboratory, 140 mg/ml (antibody, chains of the INN, looked up, V domains shown)
# VH: B1 VH
# VL: B1 VL
# Key:
# wild-type hamsters [1] = assay: Effect of the combination of Alirocumab and semaglutide on blood glucose in hamsters; type: in vivo, hamster; details: for Blood glucose (relative concentration): 7th day after dosing relative to baseline, s.c. once every two days, high-fat high-sugar feed, x±s; for Blood glucose decline rate E value: 7th day, versus control group, recorded as 0 if not significantly different from control
# Method: The experimental animals in this Example were wild-type hamsters, and the hamsters were grouped and administered according to the following standard: • 1) Control group: injection of excipient samples, subcutaneous injection (administration of […]), once every two days; • 2) Alirocumab group: injection of Alirocumab sample (Alirocumab 10 mg/kg), subcutaneous injection, once every two days; • 3) Semaglutide group: injection of semaglutide sample (semaglutide 0.12 mg/kg), subcutaneous injection, once every two days; • 4) Alirocumab+semaglutide group: injection of Alirocumab (Alirocumab 10 mg/kg) and semaglutide (semaglutide 0.12 mg/kg) by subcutaneous injection, the frequency of administration was once every two days.
# On the first day of the experiment, each group of wild-type hamsters was given high-fat and high-sugar feed (containing 10% lard, 10% cholesterol, and 60% fructose) and injected with drugs according to the above dosing regimen for each group, and blood was collected from the inner canthus vein of the hamster on the day before administrating and 7th day after dosing, plasma was anticoagulated with sodium heparin, and plasma was obtained by centrifugation of the whole blood at 4° C. for 10 min at 4000 rpm, and the blood glucose level was detected by glucose assay kit (Biosino Bio-Technology and Science Incorporation).
# The obtained blood glucose data were normalized according to the following method: taking the blood glucose of each group before the administration of the drug as the baseline, the relative concentration of the corresponding time point obtained by comparing the blood glucose at the monitoring point after the administration of the drug to the baseline glucose, the relative concentration of blood glucose was expressed as x±s, and the decline rate of the blood glucose of each administration group was calculated by using the analysis of variance using the GraphPad Prism software, in which x means the average value of data, and s denotes the standard deviation.
# Decline rate of blood glucose: E=[(relative blood glucose of […])/relative blood glucose of control group]×100%
# Note: If there is no significant difference between the relative blood glucose value of the administered group and the relative blood glucose of the control group, the value of E is recorded as 0.
# Calculation method of synergistic effect: the determination was made by using Zhengjun Jin's Q value, in which the Q value was obtained by the following formula: Q=Ea+b/(Ea+Eb−Ea×Eb); wherein Ea+b indicated the decline rate of detection indexes of the combination and mixed administration of the two drugs, and Ea, Eb indicated the decline rate of detection indexes of the two drugs used alone. If Q is between 0.85 and 1.15, it means that the two drugs have an additive effect; Q>1.15, the two drugs have a synergistic effect; Q<0.85, the two drugs have an antagonistic effect.
# [2] = system: humanized mice overexpressing PCSK9 (B6-hPCSK9); assay: Animal efficacy of Evolocumab in combination with Compound 5: body weight, fasting blood glucose, LDL-C; type: in vivo, mouse
# Source text: In this example, humanized mice overexpressing PCSK9 (B6-hPCSK9) (males, 6 weeks old) were used, totaling 30 mice. These humanized mice were divided into six groups: K0-K5, with 5 mice per group. K0 served as the NC control group (fed a high-fat feed throughout the experiment), while K1-K5 were experimental groups. After a 1-week adaptation period with growth and breeding feed (Keao Xieli Feed), they were fed a high-fat diet for one month (Xietong Pharmaceutical Bio-engineering), and dosing was initiated after the high-fat diet feeding.
# The dosing for each experimental group was done via subcutaneous injection once in total, with the dose administrated calculated based on the dose of Evolocumab. […] If the dose was doubled (2×), the dose was doubled accordingly.
# Throughout the experiment, various indicators were monitored with the following frequencies: for weight monitoring, the weight was measured and recorded before dosing and then every other day after blood collection, this was performed a total of 3 times. […] Blood glucose levels were measured using a glucose assay kit (provided by Biosino Bio-Technology and Science Inc). […] LDL-C in the serum samples was measured using an LDL-C test kit (Nanjing Jiacheng Bioengineering Institute).
# wild-type hamsters [3] = assay: Effect of the combination of Evolocumab and Compound 5 on blood glucose in hamsters; type: in vivo, hamster
# Method: The experimental animals in this Example were wild-type hamsters, and the hamsters were grouped and administered according to the following standard: • 1) Control group: subcutaneous injection of excipient samples, subcutaneous injection (administration of 2 μL/kg), once every two days; • 2) Evolocumab group: injection of Evolocumab samples (Evolocumab 30 mg/kg) by subcutaneous injection, once every two days; • 3) Compound 5 group: injection of compound 5 sample (compound 5: 0.12 mg/kg), using subcutaneous injection, once every two days; • 4) Evolocumab+Compound 5 group: injection of a pharmaceutical combinations containing Evolocumab and Compound 5 (Evolocumab 30 mg/kg, Compound 5: 0.12 mg/kg) by subcutaneous injection once every two days.
# On the first day of the experiment, each group of wild-type hamsters was given high-fat and high-sugar feed (containing 10% lard, 10% cholesterol, and 60% fructose) and injected with samples according to the dosing regimen described above for each group, and blood was collected from the inner canthus vein of the hamsters on the day before administration and 7th day after administration, and plasma was anticoagulated with heparin sodium, and plasma was obtained by centrifugation for 10 min at 4° C. at 4,000 rpm, and the blood glucose level was measured by glucose assay kit (Biosino Bio-Technology and Science Incorporation.) […]
# [4] = system: transgenic mice overexpressing human PCSK9; assay: Effect of Evolocumab in combination with Compound 5 on blood lipid (LDL-C) in hyperlipidemic mice; type: in vivo, mouse; details: conclusion in words from Table 3
# Method: In this example, experimental animals were transgenic mice overexpressing human PCSK9 (4 weeks old). After being fed a high-fat diet for 37 days, their fasting lipid levels were measured.
# On the 5th day after dosing, the lipid levels of the mice were measured. The lipid measurement method was as follows: Blood was collected from the mice via the inner canthus vein, plasma was obtained by centrifuging whole blood at 4° C. and 4000 rpm for 10 minutes with sodium heparin as an anticoagulant. LDL-C levels were measured using an LDL-C assay kit (Nanjing Jiancheng Bioengineering Institute).
# The blood lipid data obtained were normalized using the following method: The blood lipid of each group before administration was taken as baseline, and the relative concentration of lipid at the corresponding time point obtained by comparing the blood lipid at the monitoring points after administration with that before administration. The relative concentration of blood lipid is represented as ‘x±s’, with ‘x’ representing the mean value of the data and ‘s’ representing the standard deviation. Variance analysis was conducted using GraphPad Prism software.
# [5] = CEX-HPLC acid-to-base peak ratio of Evolocumab (storage stability); type: physicochemical; details: 4° C., reference of one-month study of Suspension Formulation-2
# [6] = Reduced CE-SDS light and heavy chain ratio of Evolocumab (storage stability); type: physicochemical; details: 4° C., reference of one-month study of Suspension Formulation-2
# Source text: The Acidic and Alkaline Peak ratio of Evolocumab monoclonal antibody in Suspension Formulation-2 falls within the quality standard range of originator product. (main peak≥51%, alkaline peak≤16%). • (4) The results of reduced CE-SDS testing for the light-heavy chain ratio of Evolocumab monoclonal antibody in Suspension Formulation-2 are presented in Table 22: […]
molecule,measurement,setting,value
Semaglutide,Blood glucose (relative concentration),wild-type hamsters [1],0.61 ± 0.062
same,Blood glucose decline rate E value,wild-type hamsters [1],14.1%
Alirocumab,Blood glucose (relative concentration),wild-type hamsters [1],0.71 ± 0.049
same,Blood glucose decline rate E value,wild-type hamsters [1],0%
same,hypoglycemic function,wild-type hamsters [1]; conclusion in words from Table 1,did not show a hypoglycemic function
B1,body weight,"[2]; single s.c. 1× dose (K2 530 ug/kg Compound 5; K3, K4 12.3 mg/kg Evolocumab), FIGS. 1-2",did not experience weight loss
same,LDL-C,"[2]; single s.c. 1× dose (K3, K4 12.3 mg/kg Evolocumab), FIG. 5",ability to lower LDL-C levels was consistent
same,Blood glucose decline rate E value,"wild-type hamsters [3]; 7th day, versus control group, recorded as 0 if not significantly different from control",0%
same,hypoglycemic function,wild-type hamsters [3]; conclusion in words from Table 2,did not show a hypoglycemic function
same,lipid-lowering effect,[4],lipid-lowering effects
B2,Alkaline Peak (%),[5],10.569%
same,Pre-LC + LC + HC(%),[6],98.79%
